Tested on: growth of yeast strains under 51 stress conditions
Assay: Growth assays in 51 stress conditions (Fig. 1E-F, S2D, S5B)
Format: cell-based, Saccharomyces cerevisiae
Design: key to Growth (Fig. S2D) / growth of ABP1 SH3-swapped strains in stress condition: log2 colony size, average of median per strain (growth score)
Conditions: ABP1 SH3-swapped strains
How it was run: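 Colony sizes at 74 h on 51 stress media (37 °C) were log2 transformed, corrected for plate effects, and averaged across two plates as per-plate medians (growth score). Strains arrayed in 12 replicates with WT border, grown first on YPD for two days at 30 °C.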

B1: LSB1 (protein, UniProt P53281 2-241, looked up)
LAS seventeen-binding protein …: SASLVNRSLKNIRNELEFLKESNVISGDIFELINSKLPEKWDGNQRSPQNADTEEYVEALYDFEAQQDGDLSLKTGDKIQVLEKISPDWYRGKSNNKIGIFPANYVKPAFTRSASPKSAEAASSSTVSRPSVPPPSYEPAASQYPSQQVSAPYAPPAGYMQAPPPQQQQAPLPYPPPFTNYYQQPQQQYAPPSQQAPVEAQPQQSSGASSAFKSFGSKLGNAAIFGAGSAIGSDIVNSIF
Bathophenanthroline.0.1uM
  Growth (Fig. S2D): 10.7989
Bathophenanthroline.10uM
  Growth (Fig. S2D): 10.6305
Bathophenanthroline.1uM
  Growth (Fig. S2D): 10.7471
CaCl2.100mM
  Growth (Fig. S2D): 10.8093
CaCl2.250mM
  Growth (Fig. S2D): 10.7989
CaCl2.500mM
  Growth (Fig. S2D): 10.2904
Caffein.10mM
  Growth (Fig. S2D): 10.1077
Caffein.2mM
  Growth (Fig. S2D): 10.9656
CdCl2.100uM
  Growth (Fig. S2D): 9.41
CdCl2.10uM
  Growth (Fig. S2D): 10.8732
CdCl2.50uM
  Growth (Fig. S2D): 9.85
CuSO4.1mM
  Growth (Fig. S2D): 10.4529
CuSO4.5mM
  Growth (Fig. S2D): 7.9447
Cycloheximide.0.05.uM
  Growth (Fig. S2D): 11.0938
Cycloheximide.0.2.uM
  Growth (Fig. S2D): 10.6171
Cycloheximide.0.5.uM
  Growth (Fig. S2D): 10.0964
DMSO.2.
  Growth (Fig. S2D): 11.0559
DMSO.6.
  Growth (Fig. S2D): 9.9059
DMSO.8.
  Growth (Fig. S2D): 9.2023
Ethanol.2.
  Growth (Fig. S2D): 10.7659
Ethanol.6.
  Growth (Fig. S2D): 10.2982
Ethanol.8.
  Growth (Fig. S2D): 10.0154
Galactose.2.
  Growth (Fig. S2D): 10.7736
Glycerol.2.
  Growth (Fig. S2D): 9.808
Hydroxyurea.25mM
  Growth (Fig. S2D): 10.7374
Hygromycin.190uM
  Growth (Fig. S2D): 11.0084
Hygromycin.19uM
  Growth (Fig. S2D): 10.9924
Hygromycin.95uM
  Growth (Fig. S2D): 10.9928
MMS.0.004.
  Growth (Fig. S2D): 10.965
MMS.0.02.
  Growth (Fig. S2D): 10.7457
MMS.0.04.
  Growth (Fig. S2D): 10.0868
Menadione.100uM
  Growth (Fig. S2D): 10.5379
Menadione.200uM
  Growth (Fig. S2D): 10.4102
Menadione.50uM
  Growth (Fig. S2D): 10.7973
NaCl.0.25M
  Growth (Fig. S2D): 10.8176
NaCl.1M
  Growth (Fig. S2D): 9.837
Nitroquinoline.10uM
  Growth (Fig. S2D): 10.6531
Nitroquinoline.50uM
  Growth (Fig. S2D): 10.6066
Nystatin.0.01uM
  Growth (Fig. S2D): 10.9737
Nystatin.0.1uM
  Growth (Fig. S2D): 10.9631
Raffinose.2.
  Growth (Fig. S2D): 11.0015
Rapamycin.10nM
  Growth (Fig. S2D): 9.7845
Rapamycin.50nM
  Growth (Fig. S2D): 9.381
SC.pH3
  Growth (Fig. S2D): 10.3983
SC.pH6
  Growth (Fig. S2D): 10.9866
SDS.0.01.
  Growth (Fig. S2D): 10.9788
SDS.0.02.
  Growth (Fig. S2D): 10.9881
SDS.0.05.
  Growth (Fig. S2D): 10.872
Sorbitol.10mM
  Growth (Fig. S2D): 11.0061
Sorbitol.1mM
  Growth (Fig. S2D): 11.049
Sorbitol.5mM
  Growth (Fig. S2D): 10.9179

B2: HOF1 (protein, UniProt Q05080 1-669, looked up)
Cytokinesis protein 2: MSYSYEACFWDPNDNGVNILLGHISQGIRSCDSMILFFKQRSELEKDYARRLGAITGKLDKDIGTNMDYGKLNETFNVVLSVEKARAQSHSKQSEILFRQIYTDTKAFAANLQARYTTLSGKIERLRMDKFNKKKGCEVLQKKLQDAQIRFRDLQLNENNMIGAKRVEHNKRELLKWESNSQEYKVQLDVLKQEYKASQKFWIHEWAQLSCELQEMENARISFLQSKLQQFATSSMETYILEQTKMDMLTNHLNSFTAADEISTFSKENGTGRLKHKTSKGDMNSSANWAQMSSISTTSKKTESYMDNIRKLSSQLKETENKRKLASIDKYEKPLPSPEVTMATQFRNSTPVIRNETKVVANPTLSLRSSPVQLQSNVDDSVLRQKPDKPRPIVGEEQLKPDEDSKNPDEKGLMVHKRNQSLSSPSESSSSNPTDFSHIKKRQSMESMTTSVSSMANSIDDSQRFAKSWNSSNRKRKSMSHLQVPSSASSRSDDGGRTPNSAHNLNEDDYNTRRDTSTSTILFKPPVAVRGTSRGHTHRQSMIMQDSSNPIEDALYEMERIQSSSKPGTKTGNIMDERGVVRDRGITVTLPIVTSEGFPVIEYAKAMYPLIGNEAPGLANFHKGDYLLITEIVNKDWYKGEVYDNDRIDRNHRIGLIPYNFIQLLHQGL
Bathophenanthroline.0.1uM
  Growth (Fig. S2D): 10.8727
Bathophenanthroline.10uM
  Growth (Fig. S2D): 10.6716
Bathophenanthroline.1uM
  Growth (Fig. S2D): 10.8166
CaCl2.100mM
  Growth (Fig. S2D): 10.8864
CaCl2.250mM
  Growth (Fig. S2D): 10.8461
CaCl2.500mM
  Growth (Fig. S2D): 10.3385
Caffein.10mM
  Growth (Fig. S2D): 10.1794
Caffein.2mM
  Growth (Fig. S2D): 11.0235
CdCl2.100uM
  Growth (Fig. S2D): 9.561
CdCl2.10uM
  Growth (Fig. S2D): 10.9284
CdCl2.50uM
  Growth (Fig. S2D): 9.924
CuSO4.1mM
  Growth (Fig. S2D): 10.5096
CuSO4.5mM
  Growth (Fig. S2D): 8.102
Cycloheximide.0.05.uM
  Growth (Fig. S2D): 11.0987
Cycloheximide.0.2.uM
  Growth (Fig. S2D): 10.6706
Cycloheximide.0.5.uM
  Growth (Fig. S2D): 10.177
DMSO.2.
  Growth (Fig. S2D): 11.0794
DMSO.6.
  Growth (Fig. S2D): 9.956
DMSO.8.
  Growth (Fig. S2D): 9.269
Ethanol.2.
  Growth (Fig. S2D): 10.828
Ethanol.6.
  Growth (Fig. S2D): 10.3088
Ethanol.8.
  Growth (Fig. S2D): 10.1098
Galactose.2.
  Growth (Fig. S2D): 10.8257
Glycerol.2.
  Growth (Fig. S2D): 9.711
Hydroxyurea.25mM
  Growth (Fig. S2D): 10.8274
Hygromycin.190uM
  Growth (Fig. S2D): 11.0188
Hygromycin.19uM
  Growth (Fig. S2D): 11.0238
Hygromycin.95uM
  Growth (Fig. S2D): 11.0846
MMS.0.004.
  Growth (Fig. S2D): 10.9957
MMS.0.02.
  Growth (Fig. S2D): 10.7428
MMS.0.04.
  Growth (Fig. S2D): 9.974
Menadione.100uM
  Growth (Fig. S2D): 10.6873
Menadione.200uM
  Growth (Fig. S2D): 10.4637
Menadione.50uM
  Growth (Fig. S2D): 10.8466
NaCl.0.25M
  Growth (Fig. S2D): 10.8422
NaCl.1M
  Growth (Fig. S2D): 9.66
Nitroquinoline.10uM
  Growth (Fig. S2D): 10.7373
Nitroquinoline.50uM
  Growth (Fig. S2D): 10.5646
Nystatin.0.01uM
  Growth (Fig. S2D): 10.9834
Nystatin.0.1uM
  Growth (Fig. S2D): 10.9984
Raffinose.2.
  Growth (Fig. S2D): 11.035
Rapamycin.10nM
  Growth (Fig. S2D): 9.895
Rapamycin.50nM
  Growth (Fig. S2D): 9.528
SC.pH3
  Growth (Fig. S2D): 10.4278
SC.pH6
  Growth (Fig. S2D): 10.9986
SDS.0.01.
  Growth (Fig. S2D): 11.0079
SDS.0.02.
  Growth (Fig. S2D): 11.0441
SDS.0.05.
  Growth (Fig. S2D): 10.886
Sorbitol.10mM
  Growth (Fig. S2D): 11.0139
Sorbitol.1mM
  Growth (Fig. S2D): 11.1055
Sorbitol.5mM
  Growth (Fig. S2D): 10.9626

B3: HSE1 (protein, UniProt P38753 2-452, looked up)
Class E vacuolar …: SSSAIKIRNALLKATDPKLRSDNWQYILDVCDLVKEDPEDNGQEVMSLIEKRLEQQDANVILRTLSLTVSLAENCGSRLRQEISSKNFTSLLYALIESHSVHITLKKAVTDVVKQLSDSFKDDPSLRAMGDLYDKIKRKAPYLVQPNVPEKHNMSTQADNSDDEELQKALKMSLFEYEKQKKLQEQEKESAEVLPQQQQQHQQQNQAPAHKIPAQTVVRRVRALYDLTTNEPDELSFRKGDVITVLEQVYRDWWKGALRGNMGIFPLNYVTPIVEPSKEEIEKEKNKEAIVFSQKTTIDQLHNSLNAASKTGNSNEVLQDPHIGDMYGSVTPLRPQVTRMLGKYAKEKEDMLSLRQVLANAERSYNQLMDRAANAHISPPVPGPALYAGMTHANNTPVMPPQRQSYQSNEYSPYPSNLPIQHPTNSANNTPQYGYDLGYSVVSQPPPGYEQ
Bathophenanthroline.0.1uM
  Growth (Fig. S2D): 10.8649
Bathophenanthroline.10uM
  Growth (Fig. S2D): 10.6324
Bathophenanthroline.1uM
  Growth (Fig. S2D): 10.7994
CaCl2.100mM
  Growth (Fig. S2D): 10.826
CaCl2.250mM
  Growth (Fig. S2D): 10.8072
CaCl2.500mM
  Growth (Fig. S2D): 10.2874
Caffein.10mM
  Growth (Fig. S2D): 10.0363
Caffein.2mM
  Growth (Fig. S2D): 11.0184
CdCl2.100uM
  Growth (Fig. S2D): 9.591
CdCl2.10uM
  Growth (Fig. S2D): 10.9135
CdCl2.50uM
  Growth (Fig. S2D): 9.882
CuSO4.1mM
  Growth (Fig. S2D): 10.4158
CuSO4.5mM
  Growth (Fig. S2D): 7.9665
Cycloheximide.0.05.uM
  Growth (Fig. S2D): 11.0571
Cycloheximide.0.2.uM
  Growth (Fig. S2D): 10.6529
Cycloheximide.0.5.uM
  Growth (Fig. S2D): 10.099
DMSO.2.
  Growth (Fig. S2D): 11.0462
DMSO.6.
  Growth (Fig. S2D): 9.883
DMSO.8.
  Growth (Fig. S2D): 9.238
Ethanol.2.
  Growth (Fig. S2D): 10.7698
Ethanol.6.
  Growth (Fig. S2D): 10.2684
Ethanol.8.
  Growth (Fig. S2D): 10.106
Galactose.2.
  Growth (Fig. S2D): 10.7486
Glycerol.2.
  Growth (Fig. S2D): 9.782
Hydroxyurea.25mM
  Growth (Fig. S2D): 10.7604
Hygromycin.190uM
  Growth (Fig. S2D): 10.981
Hygromycin.19uM
  Growth (Fig. S2D): 10.9309
Hygromycin.95uM
  Growth (Fig. S2D): 11.0429
MMS.0.004.
  Growth (Fig. S2D): 11.0045
MMS.0.02.
  Growth (Fig. S2D): 10.6778
MMS.0.04.
  Growth (Fig. S2D): 10.0151
Menadione.100uM
  Growth (Fig. S2D): 10.5782
Menadione.200uM
  Growth (Fig. S2D): 10.4179
Menadione.50uM
  Growth (Fig. S2D): 10.792
NaCl.0.25M
  Growth (Fig. S2D): 10.7546
NaCl.1M
  Growth (Fig. S2D): 9.884
Nitroquinoline.10uM
  Growth (Fig. S2D): 10.6974
Nitroquinoline.50uM
  Growth (Fig. S2D): 10.5671
Nystatin.0.01uM
  Growth (Fig. S2D): 11.0224
Nystatin.0.1uM
  Growth (Fig. S2D): 11.0326
Raffinose.2.
  Growth (Fig. S2D): 11.0272
Rapamycin.10nM
  Growth (Fig. S2D): 9.925
Rapamycin.50nM
  Growth (Fig. S2D): 9.396
SC.pH3
  Growth (Fig. S2D): 10.4058
SC.pH6
  Growth (Fig. S2D): 10.9649
SDS.0.01.
  Growth (Fig. S2D): 10.9823
SDS.0.02.
  Growth (Fig. S2D): 10.9972
SDS.0.05.
  Growth (Fig. S2D): 10.8418
Sorbitol.10mM
  Growth (Fig. S2D): 11.0121
Sorbitol.1mM
  Growth (Fig. S2D): 11.0602
Sorbitol.5mM
  Growth (Fig. S2D): 10.8937

Source: paper PMC7954794, “Protein context shapes the specificity of SH3 domain-mediated interactions in vivo” (Nature Communications, 2021)
